The results in this text go back to patent US10184140B2, “Materials and methods for production of bi-functional fatty acids in recombinant bacteria” (IOWA STATE UNIVERSITY RESEARCH FOUNDATION, INC., priority 2013, dated 2019).

The nature of data set [1]: Spectrophotometric coupled assay (FabD/FabG, NADPH at 340 nm) of KASIII specific activity with acyl-CoA substrates. The following applies: for Specific Activity with Acetyl-CoA: substrate acetyl-CoA; for Specific Activity with Acetyl-CoA / Specific Activity with Isobutyryl-CoA: n.d. = not detectable; for Specific Activity with Isobutyryl-CoA: substrate isobutyryl-CoA.
Description: The method comprises (i) incubating holo-ACP, malonyl-CoA, acyl-CoA, NADPH, and malonyl-CoA:ACP transacylase (FabD), (ii) adding KASIII and 3-ketoacyl-ACP reductase (FabG), and (iii) measuring the change in absorbance at 340 nm when NADPH is converted to NADP+ during reduction of 3-ketoacyl-ACP to 3-hydroxyl-acyl ACP by FabG.
Activity of A. acidocaldarius KASIII with different acyl-CoA substrates (acetyl-CoA, isobutyryl-CoA and 3-hydroxybutyryl-CoA (Sigma-Aldrich)) was ascertained by a coupled assay. The assay was performed in 96-well plate format with three replicates for each reaction condition. In a total volume of 100 μl for each reaction the reaction mix containing 100 μM holo-ACP, 200 μM malonyl-CoA, 10 mM DTT, 50 μM acyl-CoA substrate (either acetyl-CoA, isobutyryl-CoA or 3-hydroxy-butyryl-CoA) and 200 μM NADPH in 0.1 M sodium phosphate buffer (pH 7.2) was pre-incubated with 60 μg of FabD for two minutes. The reaction was started by the addition of 30 μg of FabG and varying concentrations of A. acidocaldarius (0.5-15 μg). Change in absorbance of NADPH that was being converted to NADP^+ during reduction of 3-ketoacyl-ACP 3-hydroxy-acyl-ACP by FabG was recorded at 340 nm using a Biotek multi-plate reader.
Spectrophotometric assay was used to assess the activity of A. acidocaldarius KASIII with various acyl-CoA substrates. The assay coupled the appearance of the KASIII-product (3-ketoacyl-ACP) to the oxidation of NADPH, catalyzed by 3-ketoacyl-ACP reductase (FabG).
KASIII enzymatic activity was ascertained via spectrophotometric assay, which coupled the appearance of 3-ketoacyl-ACP to the oxidation of NADPH, using the E. coli FabG protein to reduce 3-ketoacyl-ACP to 3-hydroxyacyl-ACP. The assay was performed in a 96-well plate-format with three technical replicates for each reaction condition. In a total volume of 100 μl for each reaction, the reaction mix contained 100 μM holo-ACP, 200 μM malonyl-CoA, 10 mM DTT, 50 μM acyl-CoA substrate, and 200 μM NADPH in 0.1 M sodium phosphate buffer (pH 7.2). This mixture was pre-incubated with 60 μg of FabD for two minutes to initiate synthesis of malonyl-ACP from malonyl-CoA and holo-ACP. The reaction was then started by the addition of 30 μg of FabG and varying concentrations of KASIII enzyme (0.5-15 μg). As KASIII catalysed the condensation of acyl-CoA with malonyl-ACP to form 3-ketoacyl-ACP, FabG reduced the 3-ketoacyl-ACP intermediate to 3-hydroxy-acyl ACP in the presence of NADPH.
The nature of data set [2]: Saturation Transfer Difference NMR of KASIII enzymes with acetyl-CoA or isobutyryl-CoA. In kind it is binding. Here is the method: NMR experiments were performed at 25° C. on a Bruker AV700 MHz spectrometer equipped with a 5 mm HCN cryoprobe. Samples for STD NMR experiments were prepared in 0.1 M sodium phosphate buffer (pH 7.4) with 5% D2O. The protein/ligand ratio was set as 1:100 with KASIII concentration in the 20-25 μM range. Saturation was applied as CW pulse with a power of 58-60 Hz, with on-resonance pulses at 0.62 ppm and 6.86 ppm for upfield and downfield, respectively. The off-resonance pulse was applied at 45 ppm. 3-9-19 WATERGATE suppression was used with a T1-ρ filter. Saturation time of five seconds with an additional delay of 5.1 seconds was used. A set of three replicates was acquired, with 32 scans in each replicate, for each STD NMR experiment of KASIII wild-type or mutated enzyme with a ligand, which was either acetyl-CoA or isobutyryl-CoA (Sigma-Aldrich, St. Louis, Mo.). The reference and the saturated spectra were obtained in an interleaved manner. Resonance assignments of 1H NMR spectra of free ligands were completed using ID 1H and COSY.
Control experiments were carried out by applying on- and off-resonance saturation pulses either to the ligand in the absence of protein, or to the ligand in the presence of denatured protein.
Relative STD effects (ASTD) were calculated according to the equation ASTD=(Io−Isat)/Io where Isat is the signal intensity of the saturated spectrum and Io is the signal intensity of the reference spectrum (Mayer et al., J. Am. Chem. Soc. 123: 6108-6117 (2001)). STD amplification factor was calculated according to the equation: STDaf=ASTD×molar ligand excess.
STD NMR experiments elucidated interactions of these purified enzymes (both wild-type and mutated) with straight-chain substrate (acetyl-CoA) and branched-chain substrate (isobutyryl-CoA) and enabled mapping of binding epitopes on the two substrates. Relative saturation transfer to each of the binding epitopes was measured and converted to the STD amplification factor (STDaf), which is an indicator of ligand binding (Mayer et al., J. Am. Chem. Soc. 123: 6108-6117 (2001)). Ligand epitopes with high STDaf values are assumed to receive higher saturation transfer from the enzyme, and thus are in close contact with the enzyme.

B1: B. subtilis KASIIIa Wild-type: B. subtilis KASIIIA, bfabHA (yjaX) locus, GenBank CAB12974.1, amino acid sequence SEQ ID NO:64 (protein)
chain: MKAGILGVGRYIPEKVLTNHDLEKMVETSDEWIRTRTGIEERRIAADDVFSSHMAVAAAKNALEQAEVAAEDLDMILVATVTPDQSFPTVSCMIQEQLGAKKACAMDISAACAGFMYGVVTGKQFIESGTYKHVLVVGVEKLSSITDWEDRNTAVLFGDGAGAAVVGPVSDDRGILSFELGADGTGGQHLYLNEKRHTIMNGREVFKFAVRQMGESCVNVIEKAGLSKEDVDFLIPHQANIRIMEAARERLELPVEKMSKTVHKYGNTSAASIPISLVEELEAGKIKDGDVVVMVGFGGGLTWGAIAIRWGR
modifications: B. subtilis
For B1, the “Catalytic activity with the isobutyryl-CoA substrate retained” value in data set [1] (conserved Phe mutated to Ala, compared with wild-type) is “about 25%”. In data set [1], the “Specific Activity with Acetyl-CoA” value is 64 ± 32 nmol/min/mg and the “Specific Activity with Isobutyryl-CoA” value is recorded as 205 ± 139 nmol/min/mg. For the same molecule, in data set [2] (isobutyryl-CoA vs acetyl-CoA), the “Higher saturation of HAP proton of isobutyryl-CoA as compared to the acetyl-CoA HAP proton” value was about 28%. Moreover, in data set [2] (protein/ligand 1:100, 25° C.), the “STD amplification factor (STDaf), HT proton of acetyl-CoA” value is given as 1.5 and the “STD amplification factor (STDaf), HT proton of isobutyryl-CoA” value amounted to 1.5.

B2: B. subtilis KASIIIa F208V_M213L: B. subtilis KASIIIA double mutant F208V_M213L, amino acid sequence SEQ ID NO:124 (protein)
chain: MKAGILGVGRYIPEKVLTNHDLEKMVETSDEWIRTRTGIEERRIAADDVFSSHMAVAAAKNALEQAEVAAEDLDMILVATVTPDQSFPTVSCMIQEQLGAKKACAMDISAACAGFMYGVVTGKQFIESGTYKHVLVVGVEKLSSITDWEDRNTAVLFGDGAGAAVVGPVSDDRGILSFELGADGTGGQHLYLNEKRHTIMNGREVFKVAVRQLGESCVNVIEKAGLSKEDVDFLIPHQANIRIMEAARERLELPVEKMSKTVHKYGNTSAASIPISLVEELEAGKIKDGDVVVMVGFGGGLTWGAIAIRWGR
modifications: B. subtilis KASIIIA double mutant; (208)..(208) phenylalanine at amino acid position 208 replaced with valine; (213)..(213) methionine at amino acid position 213 replaced with leucine
Consider B2, for which, in data set [1], the “Specific Activity with Isobutyryl-CoA” value turned out to be 17 ± 7 nmol/min/mg.

B3: B. subtilis KASIIIa F297A: B. subtilis KASIII containing an F297A mutation, amino acid sequence SEQ ID NO:126 (protein)
chain: MKAGILGVGRYIPEKVLTNHDLEKMVETSDEWIRTRTGIEERRIAADDVFSSHMAVAAAKNALEQAEVAAEDLDMILVATVTPDQSFPTVSCMIQEQLGAKKACAMDISAACAGFMYGVVTGKQFIESGTYKHVLVVGVEKLSSITDWEDRNTAVLFGDGAGAAVVGPVSDDRGILSFELGADGTGGQHLYLNEKRHTIMNGREVFKVAVRQLGESCVNVIEKAGLSKEDVDFLIPHQANIRIMEAARERLELPVEKMSKTVHKYGNTSAASIPISLVEELEAGKIKDGDVVVMVGAGGGLTWGAIAIRWGR
modifications: B. subtilis KASIIIA mutant; (297)..(297) phenylalanine at amino acid position 297 replaced with alanine
For the molecule B3, the “Specific Activity with Isobutyryl-CoA” value in data set [1] stood at 56 ± 28 nmol/min/mg.

B4: B. subtilis KASIIIa F208V: B. subtilis KASIIIA single mutant F208V, amino acid sequence SEQ ID NO:120 (protein)
chain: MKAGILGVGRYIPEKVLTNHDLEKMVETSDEWIRTRTGIEERRIAADDVFSSHMAVAAAKNALEQAEVAAEDLDMILVATVTPDQSFPTVSCMIQEQLGAKKACAMDISAACAGFMYGVVTGKQFIESGTYKHVLVVGVEKLSSITDWEDRNTAVLFGDGAGAAVVGPVSDDRGILSFELGADGTGGQHLYLNEKRHTIMNGREVFKVAVRQMGESCVNVIEKAGLSKEDVDFLIPHQANIRIMEAARERLELPVEKMSKTVHKYGNTSAASIPISLVEELEAGKIKDGDVVVMVGFGGGLTWGAIAIRWGR
modifications: B. subtilis KASIIIA mutant; (208)..(208) phenylalanine at amino acid position 208 replaced with valine
On to B4, for which, in data set [2] (mutant vs wild-type), the “Decrease in saturation transfer/STDaf for isobutyryl-CoA HT and HB protons in comparison to the wild-type” value is on record as about 40%.

B5: B. subtilis KASIIIb W221V: B. subtilis KASIIIB single mutant W221V, amino acid sequence SEQ ID NO:128 (protein)
chain: MSKAKITAIGTYAPSRRLTNADLEKIVDTSDEWIVQRTGMRERRIADEHQFTSDLCIEAVKNLKSRYKGTLDDVDMILVATTTSDYAFPSTACRVQEYFGWESTGALDINATCAGLTYGLHLANGLITSGLHQKILVIAGETLSKVTDYTDRTTCVLFGDAAGALLVERDEETPGFLASVQGTSGNGGDILYRAGLRNEINGVQLVGSGKMVQNGREVYKVAARTVPGEFERLLHKAGLSSDDLDWFVPHSANLRMIESICEKTPFPIEKTLTSVEHYGNTSSVSIVLALDLAVKAGKLKKDQIVLLFGFGGGLTYTGLLIKWGM
modifications: B. subtilis KASIIIB mutant; (221)..(221) tryptophan at amino acid position 221 replaced with valine
On to B5, for which the “Specific Activity with Isobutyryl-CoA” value in data set [1] was “completely eliminated activity”.

B6: B. subtilis KASIIIb V226L: B. subtilis KASIIIB single mutant V226L, amino acid sequence SEQ ID NO:130 (protein)
chain: MSKAKITAIGTYAPSRRLTNADLEKIVDTSDEWIVQRTGMRERRIADEHQFTSDLCIEAVKNLKSRYKGTLDDVDMILVATTTSDYAFPSTACRVQEYFGWESTGALDINATCAGLTYGLHLANGLITSGLHQKILVIAGETLSKVTDYTDRTTCVLFGDAAGALLVERDEETPGFLASVQGTSGNGGDILYRAGLRNEINGVQLVGSGKMVQNGREVYKWAARTLPGEFERLLHKAGLSSDDLDWFVPHSANLRMIESICEKTPFPIEKTLTSVEHYGNTSSVSIVLALDLAVKAGKLKKDQIVLLFGFGGGLTYTGLLIKWGM
modifications: B. subtilis KASIIIB mutant; (226)..(226) valine at amino acid position 226 replaced with leucine
Consider B6, for which, in data set [1] (mutant compared with wild-type enzyme), the “Loss of activity with isobutyryl-CoA” value was “approximately 50%”. The “Specific Activity with Isobutyryl-CoA” value in data set [1] was 134 ± 6 nmol/min/mg.

B7: E. coli KASIII F304A (protein)
chain: MYTKIIGTGSYLPEQVRTNADLEKMVDTSDEWIVTRTGIRERHIAAPNETVSTMGFEAATRAIEMAGIEKDQIGLIVVATTSATHAFPSAACQIQSMLGIKGCPAFDVAAACAGFTYALSVADQYVKSGAVKYALVVGSDVLARTCDPTDRGTIIIFGDGAGAAVLAASEEPGIISTHLHADGSYGELLTLPNADRVNPENSIHLTMAGNEVFKFAVTEMAHIVDETLAANNLDRSQLDWLVPHQANLRIISATAKKLGMSMDNVVVTLDRHGNTSAASVPCALDEAVRDGRIKPGQLVLLEAAGGGFTWGSALVRF
modifications: E. coli mutant; (304)..(304) phenylalanine at amino acid position 304 replaced with alanine
Turning to B7, the “Lower saturation transfer to the HT protons of acetyl-CoA and isobutyryl-CoA compared to the wild-type” value in data set [2] (mutant vs wild-type) was “approximately 60%”.

B8: E. coli KASIII V215F_L220M: E. coli KASIII double mutant V215F_L220M, amino acid sequence SEQ ID NO:116 (protein)
chain: MYTKIIGTGSYLPEQVRTNADLEKMVDTSDEWIVTRTGIRERHIAAPNETVSTMGFEAATRAIEMAGIEKDQIGLIVVATTSATHAFPSAACQIQSMLGIKGCPAFDVAAACAGFTYALSVADQYVKSGAVKYALVVGSDVLARTCDPTDRGTIIIFGDGAGAAVLAASEEPGIISTHLHADGSYGELLTLPNADRVNPENSIHLTMAGNEVFKFAVTEMAHIVDETLAANNLDRSQLDWLVPHQANLRIISATAKKLGMSMDNVVVTLDRHGNTSAASVPCALDEAVRDGRIKPGQLVLLEAFGGGFTWGSALVRF
modifications: E. coli mutant; (215)..(215) valine at amino acid position 215 replaced with phenylalanine; (220)..(220) leucine at amino acid position 220 replaced with methionine
For B8, in data set [1], the “Specific Activity with Acetyl-CoA” value was determined as 221 ± 104 nmol/min/mg and the “Specific Activity with Isobutyryl-CoA” value is recorded as 18 ± 5 nmol/min/mg.
